Assay results: patent publication US11673947B2, “Target tissue-specific antigen-binding molecule” (Chugai Seiyaku Kabushiki Kaisha, priority 2012, dated 2023)

B1: ATNLSA1-4_D12: ATP/adenosine-binding antibody from human antibody library; variable regions SEQ ID NOs: 46 and 47 (antibody, listed as Homo sapiens, V domains shown)
VH: QVQLQESGGDLVKPGGSLRLSCAASGFTFNTYTMNWVRQAPGKGLEWLSSISSRSNYINYADSVKGRFTISRDNAKNSLYLQMNSLRAEDTAVYYCARFGRKGDLNWVFDYWGQGTLVTVSS
VL: QSALTQPPSASGSPGQSVTISCTGTSSDVGGYNYVSWYQQHPGKAPKLMIYEVSKRPSGVPDRFSGSKSGNTASLTVSGLQAEDEADYFCSSYAGSNNVVFGGGTKLTVL
B2: I6RLSA1-6_011: clone with antigen-binding activity to human IL-6 in the absence of ATP and adenosine (antibody, V domains shown)
VH: EVQLVESGGDLVKPGGGLRLSCAASGFTFSGYTMHWVRQAPGKGLEWVSSISSRSSHISYADSVKGRFTISRDNAKNSLYLQMNSLRAEDTAVYYCARFGRKYRMNWVFDYWGQGTLVTVSS
VL: QSALTQPPSASGSPGQTVTISCTGTSTDVGFYNYVSWYQQHPGKAPKLMIYDTSKRPSGVPDRFSGSKSGNTASLTVSGLQAEDEADYFCSTVTGIWSVGFGGGTKLTVL

Experiments:
[1] = Phage ELISA, binding to 2′-adenosine-PEG-biotin, 5′-adenosine-PEG-biotin and ATP-PEG-biotin
Protocol: From single colonies of E. coli obtained by panning as described in the Example above, culture supernatants containing phages were collected according to a conventional method (Method Mol. Biol. (2002) 178, 133-145). The collected culture supernatants were treated by ultrafiltration using NucleoFast 96 (MACHERY-NAGEL). 100 μl of the culture supernatants were added to each well of NucleoFast 96 and centrifuged at 4500 g for 45 minutes to remove flow through. After addition of 100 μl of H2O, the NucleoFast 96 was washed by centrifugation at 4500 g for 30 minutes. After addition of 100 μl of TBS, the NucleoFast 96 was allowed to stand for five minutes at room temperature. Then, phage suspensions were collected from the supernatants.
Purified phages, to which TBS was added, were subjected to ELISA by the following procedure. […] Then, the developed color was assessed by measuring absorbance at 450 nm.
Next, for the purpose of confirming to which antigen of 2′-adenosine-PEG-biotin, 5′-adenosine-PEG-biotin, and ATP-PEG-biotin these clones have binding ability, the purified phages diluted with TBS were subjected to ELISA by the following procedure. […] Then, the developed color was assessed by measuring absorbance at 450 nm.

[2] = Competitive phage ELISA, inhibition of binding to biotin-labeled antigens by ATP; conditions: ATP from an equal amount up to 10000 times that of the antigen
Protocol: ATNLSA1-4_D12 and PF1 were each diluted with TBS and subjected to ELISA by the following procedure.
A StreptaWell 96 microtiter plate (Roche) was coated at room temperature for one hour with 100 μl of TBS containing biotin-labeled antigens (a mixture of 5′-adenosine-PEG-biotin and ATP-PEG-biotin). After the antigens were removed by washing each well of the plate with TBST, the wells were blocked with 250 μl of 2% skim milk/TBS for one hour or more. 2% skim milk/TBS was removed, and then the prepared, purified phages were added to each well. The plate was allowed to stand at room temperature for one hour to allow binding of the antibody-displaying phages to the antigens in each well. […] For the competition of the immobilized antigen with ATP, the plate was allowed to stand at room temperature for one hour. Then, after TBST wash, an HRP-conjugated anti-M13 antibody (Amersham Pharmacia Biotech) diluted with TBS was added to each well. The plate was incubated for one hour. Following TBST wash, the TMB single solution (ZYMED) was added to each well. The chromogenic reaction in the solution of each well was terminated by adding sulfuric acid. Then, the developed color was assessed by measuring absorbance at 450 nm.

Tm measurement by DSC = assay type: physicochemical
Protocol: Then, for the purpose of improving antibody stability, the framework sequence of ATNLSA1-4_D12 was restored to the germ line sequence VH3-21 by introducing into the framework sequence of ATNLSA1-4_D12, alterations Gln01Glu, Gln05Val, Asp10Gly, Asn30Ser, Leu48Val, and Asn58Tyr (numerals represent Kabat numbers). ATNLSA1-4_D12 variants expressed and purified by the method described in Example 7-1 were measured for their Tm by DSC. DSC measurement was carried out by a method known to those skilled in the art.

[3] = Biacore T200, binding of D12 to ADP; conditions: 50 mM Tris-HCl, 500 mM NaCl, 0.01% Tween20, 15° C.
Source text: (§1) Biacore T200 (GE Healthcare) was used to analyze the interaction of D12, in which the constant region of IgG is linked to the variable region of clone ATNLSA1-4_D12 with ATP- and adenosine-binding activity, in antigen-antibody reaction. Sensor chip CM5 or CM4 (GE Healthcare) was immobilized with an appropriate amount of protein A (Life technologies) by amine coupling. The antibody of interest was captured by the chip to allow interaction with ATP (Wako), adenosine (Wako), or ADP (adenosine diphosphate) (Wako) as an antigen. The running buffer used was 50 mM Tris-HCl (Takara, T903), 500 mM NaCl, 0.01% (w/v) Tween20. The antigen was allowed to interact for 30 seconds at a flow rate of 30 μl/min, and was dissociated for 30 seconds. The interaction with the antigen was assessed at 15° C. The antigen was diluted using the same running buffer.
(§2) The dissociation constant KD (M) was calculated based on the association rate constant ka (1/Ms) and dissociation rate constant kd (1/s), both of which are kinetic parameters calculated from the sensorgram obtained by the measurement. Alternatively, the dissociation constant KD (M) was calculated using steady state analysis. Each parameter was calculated using the Biacore T200 Evaluation Software (GE Healthcare).

[4] = Biacore T200, binding of D12 and variants to adenosine (steady state, Formula 2); conditions: 15° C., specific response with/without 20 μmol/l ADP
Source text: as §1, §2
In addition, the binding response was separately assessed in the presence of 20 μmol/l ADP. […]

[5] = Biacore T200, binding of D12 and ATNLSA1-4_D12 variants to ATP; conditions: 50 mM Tris-HCl, 500 mM NaCl, 0.01% Tween20, 15° C.
Source text: as §1, with “The antigen was allowed to interact for 30 seconds at a flow rate of 30 μl/min, and was dissociated for 30 seconds.” left out, “The antigen was diluted using the same running buffer.” left out
as §2
Each variant expressed and purified by the method described in Example 7-1 was assayed for its ATP and adenosine binding by the same method as described in Example 7-6 using Biacore. Based on the assay result, the affinity of each variant for ATP was calculated as a KD value. […]

human IL6 = human IL6 (Homo sapiens, UniProt P05231); assay: Phage ELISA, binding to human IL6 in the presence or absence of adenosine and/or ATP; conditions: with or without 10 mM adenosine and ATP
human IL6, sequence (P05231 30-212): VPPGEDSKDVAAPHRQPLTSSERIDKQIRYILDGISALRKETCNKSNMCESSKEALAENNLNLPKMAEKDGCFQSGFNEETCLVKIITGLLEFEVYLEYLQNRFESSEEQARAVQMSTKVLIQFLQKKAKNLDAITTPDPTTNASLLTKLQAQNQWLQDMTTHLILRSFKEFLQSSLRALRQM
Protocol: Phage-containing culture supernatants were collected according to a conventional method (Methods Mol. Biol. (2002) 178, 133-145) from single colonies of E. coli obtained by the method described above. The collected culture supernatants were treated by ultrafiltration using NucleoFast 96 (MACHERY-NAGEL). 100 μl of the culture supernatants were added to each well of NucleoFast 96, and it was centrifuged (4500 g for 45 minutes) to remove flow through. After addition of 100 μl of H2O, the NucleoFast 96 was washed by centrifugation (4500 g for 30 minutes). Finally, 100 μl of TBS was added, and the NucleoFast 96 was allowed to stand for five minutes at room temperature. A phage suspension was collected from the supernatant in each well of the NucleoFast 96.
The purified phages, to which TBS or (adenosine+ATP)/TBS was added, were subjected to ELISA by the following procedure. A StreptaWell 96 microtiter plate (Roche) was coated overnight with 100 μl of TBS containing biotin-labeled antigen. […] Then, the developed color was assessed by measuring absorbance at 450 nm. […]
First, a StreptaWell 96 microtiter plate (Roche) was coated at room temperature for one hour or more with 100 μl of TBS containing a biotin-labeled antigen. […] Then, the developed color was assessed by measuring absorbance at 450 nm (FIGS. 25, 26, and 27). […]

Molecule | binding to biotin-labeled antigens (phage ELISA) [1] | binding to antigen in the presence of ATP [2] | Tm (Tm measurement by DSC) [°C] | Kd [3] [µM] | Kd [4] [µM] | Kd [5] [µM] | antigen-binding activity to human IL-6 in the absence of ATP and adenosine (human IL6)
B1 | had the ability to bind to both 5′-Adenosine-PEG-biotin and ATP-PEG-biotin | inhibited in an ATP concentration-dependent manner | 74.37 | 0.25 | 1100 | 8.5 | 
B2 |  |  |  |  |  |  | had an antigen-binding activity
